In PMC11979922:

Target: HOL-30, β-galactoside-binding tandem-repeat galectin from the marine sponge Halichondria okadai (Halichondria okadai)
Assay: SEC

Which stoichiometry N does the source give for “HOL-30, β-galactoside-binding tandem-repeat galectin from the marine sponge Halichondria okadai (natural protein)” here?
Its stoichiometry N is 2.
